1 molecule from patent US12139531B2, “Compositions and methods useful in promoting milk production” (The Regents of the University of California, priority 2019, dated 2024) can be followed below.

“Also recorded” adds a separate entry of the source.

What all share (type): cell-based, mouse
For test [1], the system named is HC11 cells. The test can be described thus: HC11 dome assay (milk dome formation on differentiation in DIP media). As to conditions: HC11 cells, increasing ECD concentration. As for the experimental part: To investigate ROBO1 function during alveologenesis, Robo1 gene expression was inhibited in HC11 cells (Robo1 KD). HC11 cells are a well-established, prolactin-responsive model of lactation,^19,20. Cells in which Robo1 gene expression was not inhibited are referred to as WT or Robo1+/+ herein. To measure milk production, cells were grown to confluence and then primed by treatment with epidermal growth factor (EGF, 10 ng/ml). The EGF is administered for three days in combination with charcoal-stripped fetal bovine serum, followed by one day of charcoal-stripped fetal bovine serum in the absence of EGF. These primed cells are then differentiated by treatment with dexamethasone (1 μg/ml), insulin (5 μg/ml) and prolactin (Prl, 5 μg/ml) media (DIP media) for between 3 and 5 days (FIG. 2A). Differentiation (Dif) results in the development of milk-filled domes (FIG. 2B). […] If the cells were left undifferentiated (Undif), there was little dome formation in either WT or Robo1−/− cells (FIG. 2B). Next, tissue from Robo1 knockout mice (Robo1−/−) and wild type mice (WT or Robo1+/+) mice was analyzed. Mammary glands were harvested from pregnant day 18 WT and Robo1−/− animals and alveologenesis analyzed by serially sectioning, carmine staining and then quantifying the area occupied by alveoli in sections located at top, middle and bottom portions of the tissue.
Dome number formation in response to a titration of ROBO1 ECD fragments was quantified. […] A bovine ROBO1-Ig5 construct was also tested in this assay and, as with the rat constructs, more domes were formed in response to treatment with higher concentrations of […] (FIG. 7H).
HC11 cells were grown in RPMI 1640 media (Gibco) supplemented with 10% fetal bovine serum (BioFluid Technologies), 5 μg/mL insulin (Sigma), and 10 ng/ml epidermal growth factor (EGF; Sigma). To induce differentiation in HC11 cells, confluent plates were given fresh media (RPMI 1640 media supplemented with 5% charcoal-stripped fetal bovine serum (BioFluid Technologies), 5 μg/mL insulin, and 10 ng/ml epidermal growth factor (EGF; Sigma) for 3 days followed by 24 hours of priming in priming medium (RPMI 1640 media supplemented with 5% charcoal-stripped fetal bovine serum (BioFluid Technologies), and 5 μg/mL insulin. After priming, DIP medium (RPMI 1640 media supplemented with 5% charcoal-stripped fetal bovine serum (BioFluid Technologies), 10^−6 M dexamethasone (Sigma), 5 μg/mL insulin, and 5 μg/mL prolactin (National Hormone and Peptide program) was added with fresh media every 24 hours.

The test system of test [2] is HC11 cells. The test is described as follows: Western blot analysis of WAP and PLIN2 in HC11 cells. As to conditions: ECD titration. As for the experimental part: To determine whether the promotion of dome formation also results in higher milk production, HC11 cells were differentiated in the presence or absence of ROBO1-ECD fragments that were added to cells simultaneously with DIP media. Cells were harvested and the expression of WAP and Lalba assessed by RT-qPCR. […] WAP expression levels were not increased in cells treated with DCC-Ig4 (FIG. 7K). Next, Western blot analysis of WAP and PLIN2 was performed on cells treated with ROBO1-Ig5 and ROBO1-Ecto.
Protein lysates were prepared by directly lysing adherent cells in 1× sample buffer supplemented with 5% beta-mercaptoethanol and boiled for 5 minutes. Protein lysate was resolved by SDS-PAGE and transferred to a PVDF for 90 minutes at 400 mA or overnight at 30 mA. Primary antibodies were used at the concentration indicated in Table 1 and incubated overnight at 4° C. HRP conjugated secondary antibodies (Jackson Labs) were used at 1:3000 and incubated for 45 minutes at room temp. All proteins were detected using Clarity ECL (BioRad) using a BioRad Chemi-Doc MP Imager and quantified using ImageLab software as previously described a.
In general terms: A western blot detects proteins with antibodies after separation by electrophoresis.

Test [3] concerns Notch signaling. The test is described as follows: RT-qPCR of Notch effector expression (Hey1, Hes1) in HC11 cells. The following applies: HC11 cells treated with ROBO1-ECD fragments. As for the experimental part: To examine the effects of ROBO1-ECD fragments on Notch signaling, HC11 cells were treated with ROBO1-ECD fragments and Notch effector expression assessed. […] In addition, HC11 cells were treated with ROBO-Ig5 during differentiation. These cells were then fractionated and a Western blot performed to detect HES1 and NOTCH4-ICD (FIG. 8B).
Total RNA was harvested from cells lysed in TRIzol reagent (Invitrogen) and phase separated according to manufacturer's protocol with an additional overnight RNA precipitation stem in ethanol (Macias et al., 2011). The RNA was further purified with TURBO DNase (Ambion) treatment. Total RNA quality was analyzed by agarose gel electrophoresis and quantified with an ND-1000 spectrophotometer (NanoDrop). cDNA libraries were prepared from 1 μg of total RNA using iScript cDNA synthesis kit (BioRad). Quantitative RT-PCR was performed in triplicates using light Cycler 480 SYBR Green I Master (Roche) and quantified using BioRad CFX'Connect Real-Time System and CFX Manager software (BioRad). Results were normalized to GAPDH.

The subject of test [4] is HC11 cells. The test is described as follows: Bodipy 493/503 neutral lipid staining of differentiated HC11 cells. The following applies: Bodipy493/503 staining. As for the experimental part: To determine whether the ROBO1 ECD fragments influence NOTCH4 signaling, HC11 assays were performed to monitor dome formation using both phase contrast microscopy (FIG. 7A, B, top), and fluorescent microscopy using hydrophobic Bodipy493/503 that binds neutral lipids (FIG. 7A, B, bottom). Undifferentiated (Undif) cells are distinct with interconnecting processes visible in phase contrast and little/no Bodipy staining (FIG. 7A). Upon differentiation and prolactin treatment, small lipid droplets accumulate that appear as dark-rimmed circles in phase contrast (FIG. 7B, top) and as punctate green circles by Bodipy staining (FIG. 7B, bottom).
Place cells in a half-volume of buffer or media. Make a 2× solution (2 μg/ml=7.6 μM) of Invitrogen™ BODIPY™ 493/503 dye in 0.5 mL volume of the same pre-warmed buffer or media (no cells, no BSA or serum) and mix vigorously to mechanically emulsify this solution. Immediately add to the solution of cells, mix and incubate up to 30 min.

B1: ROBO1-Ecto: recombinant soluble ROBO1 construct comprising the entire extracellular domain (protein)
chain: SRLRQEDFPPRIVEHPSDLIVSKGEPATLNCKAEGRPTPTIEWYKGGERVETDKDDPRSHRMLLPSGSLFFLRIVHGRKSRPDEGVYICVARNYLGEAVSHNASLEVAILRDDFRQNPSDVMVAVGEPAVMECQPPRGHPEPTISWKKDGSPLDDKDERITIRGGKLMITYTRKSDAGKYVCVGTNMVGERESEVAELTVLERPSFVKRPSNLAVTVDDSAEFKCEARGDPVPTVRWRKDDGELPKSRYEIRDDHTLKIRKVTAGDMGSYTCVAENMVGKAEASATLTVQEPPHFVVKPRDQVVALGRTVTFQCEATGNPQPAIFWRREGSQNLLFSYQPPQSSSRFSVSQTGDLTVTNVQRSDVGYYICQTLNVAGSIITKAYLEVTDVIADRPPPVIRQGPVNQTVAVDGTLTLSCVATGSPVPTILWRKDGVLVSTQDSRIKQLESGVLQIRYAKLGDTGRYTCTASTPSGEATWSAYIEVQEFGVPVQPPRPTDPNLIPSAPSKPEVTDVSKNTVTLLWQPNLNSGATPTSYIIEAFSHASGSSWQTVAENVKTETFAIKGLKPNAIYLFLVRAANAYGISDPSQISDPVKTQDVPPTTQGVDHKQVQRELGNVVLHLHNPTILSSSSVEVHWTVDQQSQYIQGYKILYRPSGASHGESEWLVFEVRTPTKNSVVIPDLRKGVNYEIKARPFFNEFQGADSEIKFAKTLEEAPSAPPRSVTVSKNDGNGTAILVTWQPPPEDTQNGMVQEYKVWCLGNETRYHINKTVDGSTFSVVIPSLVPGIRYSVEVAASTGAGPGVKSEPQF
modifications: left off: small tags and cut ends
notes: recombinant soluble ROBO1 construct comprising the entire extracellular domain
As to B1, the “dome formation in response to a titration of ECD fragments” value in test [1] is given as “higher rates of dome formation”. In addition, in test [2], the PLIN2 protein expression entry is “approximately two-fold; also recorded: increased” and the WAP protein expression entry is reported as “approximately two-fold; also recorded: increased”. In addition, in test [3], the Hes1 expression entry is “lower expression; also recorded: decreased” and the Hey1 expression entry is listed as “lower expression; also recorded: decreased”. The “number of cells completely surrounded by lipid droplets” value in test [4] is “higher number of cells completely surrounded by lipid droplets”.
